B1: VPS39 (parent)
chain: QQVKCIITEEKVCMVCKKKIGNSA
B2: ZNF24 (parent)
chain: YGETCFPKGRFERKRNPSRKKQHI

Variants of: B1
Assay: protein stability index of a GFP-peptide fusion (GPS, HEK-293T) (PSI 1-6); higher = more stable
Details: c terminus: a fixed tail appended
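Further: lentivirally expressed fusions sorted by FACS into six bins by GFP to DsRed ratio, PSI derived from sequencing read proportions per bin multiplied by bin number.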

Protein stability index, by site and new letter:
Q1: P 2.79 | K 1.88 | M 1.83 | H 2.59 | I 1.9 | L 2.62 | E 2.67 | G 3.05 | F 1.49 | R 2.24 | C 2.4 | D 3.69 | N 2.91 | A 1.95

Variants of: B2
Assay: as above
Details: c terminus: a fixed tail appended

Protein stability index, by site and new letter:
P17: Q 2.95 | F 2.78 | G 2.97 | E 2.93 | H 3.04 | T 3.09 | L 2.5 | S 2.62 | Y 2.34 | K 2.5 | V 2.25 | R 2.89 | N 3 | D 3.58 | M 2.79 | A 2.56 | W 2.52 | C 2.37
F11: T 3.28 | Y 3.32 | L 2.35 | Q 3.41 | I 2.59 | D 2.99 | S 3.18 | E 3.16 | V 2.59 | G 3.32 | M 2.55 | W 2.2 | H 3.05 | P 2.97 | C 2.58 | K 3.13 | N 3.33 | A 3.43
R19: T 3.5 | F 1.83 | I 2 | K 2.82 | D 2.95 | H 3.22 | N 2.86 | E 2.56 | S 3.38 | V 2.89 | L 2.06 | G 2.69 | Q 2.26 | A 3.07 | W 2.42 | P 3.28 | Y 2.68 | M 2.89
I24: P 2.29 | A 3.43 | T 3.42 | V 3 | L 2.78 | K 3.22 | H 2.93 | C 2.9 | D 2.6 | Q 3.08 | M 2.57 | E 3.13 | N 3.54 | G 2.64 | S 2.77 | F 2.71 | W 2.3 | Y 3 | R 2.86
P7: W 2.57 | Y 1.76 | V 3.12 | T 3.02
R15: E 2.93 | K 2.03 | Y 2.02 | M 3.17 | W 2.76 | A 2.76 | S 2.79 | G 2.75 | F 2.83 | D 3.17 | T 2.46 | L 2.76 | I 2.28 | H 2.84 | P 3.15 | N 3.2 | C 2.65 | V 2.83 | Q 2.88
N16: F 2.23 | L 2.49 | W 2.21 | Y 2.82 | T 2.89 | D 2.15 | S 2.92 | P 2.31 | G 2.5 | E 2.89 | A 2.5 | C 2.14 | R 2.63 | V 1.94 | I 2.7 | K 2.9 | Q 2.87 | M 2.71
S18: C 2.76 | L 3.16 | G 3.53 | A 2.55 | T 2.72 | K 3.1 | M 2.77 | W 2.22 | P 2.48 | F 2.71 | H 2.34 | E 3.63 | Y 2.02 | N 3.87 | D 3.07 | V 2.62 | Q 3.03 | I 2.88 | R 2.82
K21: G 3.16 | W 2.17 | R 2.85 | P 2.61 | V 2.2 | Y 3.23 | F 2.09 | I 2.38 | S 3.05 | E 3.1 | Q 2.59 | C 2.45 | D 3.11 | L 1.95 | M 2.08 | A 2.78 | H 2.73 | N 3.23 | T 2.97
R13: E 3.1 | H 3.21 | G 2.22 | P 3 | S 3.14 | D 2.93 | T 2.3 | N 2.87 | Q 2.61 | I 2.32 | V 2.19 | K 2.9 | F 2.43 | C 2.33 | L 2.58 | W 1.75 | Y 2.25 | M 2.15 | A 2.96
Q22: H 2.33 | A 2.97 | P 2.59 | G 2.95 | N 2.94 | T 2.67 | R 2.69 | M 2.61 | F 2.23 | D 2.9 | S 3.4 | L 2.4 | C 2.14 | K 2.73 | E 3.19 | Y 2.46 | W 2.25 | V 2.4 | I 2.28
K20: H 3.09 | L 2.05 | W 1.99 | G 3.29 | C 2.1 | D 3.48 | Y 2.76 | F 2.45 | M 2.08 | V 2.66 | S 3.17 | E 2.77 | R 2.34 | T 2.44 | I 2.63 | P 2.49 | N 3.08 | A 3.31 | Q 2.34
K14: V 2.42 | F 2.55 | R 2.8 | M 2.7 | Q 3.1 | L 2.82 | S 2.65 | C 2.41 | Y 2.89 | N 3.48 | D 3.63 | G 2.92 | H 2.51 | I 2.96 | E 3.65 | A 3.21 | W 2.34 | T 2.27 | P 3.18
E12: F 2 | T 3.16 | D 3.26 | V 2.16 | G 3.16 | L 3.59 | R 3.88 | A 2.49 | P 3.11 | W 2.3 | S 2.85 | I 2.34 | N 3.1 | Y 2.46 | M 1.87 | Q 2.3 | K 2.91 | C 2.8 | H 3.09
K8: G 2.93 | E 2.96 | N 1.93 | L 2.07 | A 2.17 | Q 2.13 | I 2.49 | V 2.36 | D 3.56 | T 2.49 | S 2.42 | Y 2.74 | H 2.1 | C 1.68 | P 2.11 | R 2.88
G9: H 2.72 | A 2.11 | L 2.12 | D 2.71 | K 3.15 | M 2.18 | Q 3.28 | I 1.94 | W 2.15 | T 2.7 | N 3.06 | F 2.29 | E 3.39 | V 1.72 | P 2.41 | R 2.85 | C 1.98 | S 3 | Y 3.75
H23: V 2.78 | C 2.85 | A 2.42 | R 2.73 | Q 2.95 | G 3.25 | W 2.3 | P 3.1 | K 3.22 | F 2.95 | D 2.42 | L 2.57 | E 2.68 | Y 2.76 | N 2.85 | T 2.43 | I 2.57 | M 3.14 | S 2.56
R10: L 2.67 | I 2.92 | Q 3.38 | K 2.71 | W 1.71 | V 2.24 | S 2.82 | Y 2.72 | G 3.44 | T 3.23 | H 2.55 | F 2.83 | N 2.93 | E 3.07 | A 2.6 | M 2.9 | P 2.56 | D 3.66 | C 2.66

Reference: the supplement of paper PMC10567573
